Tests used:
[1] = molecular target: T1, EPO/EPOR interaction (EPOR-CD131-Fc and EPO) (Homo sapiens, UniProt P19235+P32927); assay: Octet blocking of the EPO/EPOR interaction by hybridoma supernatants; type: binding; details: EPO 10 nM
T1 construct: Chimeric Fc fusion proteins of the extracellular domains of human EPOR and human CD131; purchased Sino Biological CT010-H02H
T1 sequence (P19235 25-250 limits assumed): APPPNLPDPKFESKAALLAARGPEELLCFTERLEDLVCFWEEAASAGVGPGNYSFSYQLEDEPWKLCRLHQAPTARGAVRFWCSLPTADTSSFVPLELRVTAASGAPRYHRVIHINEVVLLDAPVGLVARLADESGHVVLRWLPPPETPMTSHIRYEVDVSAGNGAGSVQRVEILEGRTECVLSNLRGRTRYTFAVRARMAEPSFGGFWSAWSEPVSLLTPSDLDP
T1 sequence (P32927 17-443 limits assumed): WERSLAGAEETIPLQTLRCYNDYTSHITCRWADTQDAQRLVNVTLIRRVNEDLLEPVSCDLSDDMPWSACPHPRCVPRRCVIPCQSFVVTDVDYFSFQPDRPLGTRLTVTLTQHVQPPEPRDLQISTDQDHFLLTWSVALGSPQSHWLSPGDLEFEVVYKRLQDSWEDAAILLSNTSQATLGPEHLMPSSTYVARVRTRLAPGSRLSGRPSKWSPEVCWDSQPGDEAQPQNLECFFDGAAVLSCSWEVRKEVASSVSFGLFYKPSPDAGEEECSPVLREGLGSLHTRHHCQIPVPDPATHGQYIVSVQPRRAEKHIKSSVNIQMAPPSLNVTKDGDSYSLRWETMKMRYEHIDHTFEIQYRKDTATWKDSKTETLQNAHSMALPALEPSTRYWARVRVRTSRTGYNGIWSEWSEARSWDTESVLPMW

EPOR-Fc = molecular target: T2, EPOR-Fc (Homo sapiens, UniProt P19235); assay: Bio-layer interferometry (Octet) binding of hybridoma antibodies to EPOR-Fc; details: hybridoma supernatants; 30 nM soluble receptor
T2 construct: The extracellular domains of EPOR or CD131 are produced as soluble Fc fusion proteins; purchased Sino Biological 10707-H02H
T2 sequence (P19235 25-250 limits assumed): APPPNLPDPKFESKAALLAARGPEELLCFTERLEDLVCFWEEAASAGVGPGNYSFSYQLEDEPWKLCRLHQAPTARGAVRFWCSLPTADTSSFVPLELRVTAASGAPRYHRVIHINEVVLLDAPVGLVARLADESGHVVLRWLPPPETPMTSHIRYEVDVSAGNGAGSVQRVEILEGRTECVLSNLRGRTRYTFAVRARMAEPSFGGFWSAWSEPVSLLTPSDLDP
Text: (§1) The B cells from ATX-GK mice were fused with mouse myeloma cells to generate hybridoma. The hybridoma cells were screened twice. In the first screening, 293 cells expressing human EPOR, human CD131, or both were used as the primary screen. 87 hybridoma antibodies have been isolated by positive staining on 293T cells expressing human EPOR (hEPOR), human CD131 (hCD131), or both, with the hybridoma supernatants (Table 11 and FIG. 17). Expression of EPOR and CD131 was confirmed by flow cytometry with Phycoerythrin (PE)-labeled anti-EPOR (R&D Systems, Cat #FAB307P) and Alexa Fluor® 647 (AF647)-labeled anti-CD131 (BD Biosciences, Cat #564191), respectively (FIG. 28B). All hybridoma clones were purified and sequenced. Binding kinetics with soluble hetero-EPOR (EPOR-CD131-Fc), soluble EPO receptor subunit of hetero-EPOR (EPOR-Fc), and soluble CD131 subunit of hetero-EPOR (CD131-Fc) were measured using bio-layer interferometry (Octet®) by capturing the hybridoma antibodies in the supernatants on biosensors coated with anti-mouse Fc first and dipping the biosensors into the solutions containing 30 nM of the soluble receptor Fc fusion proteins. The supernatants were also used to block the interaction between EPO and EPOR. The soluble EPOR-CD131-Fc was first captured on biosensors coated with anti-human Fc and then dipped into 10 nM of EPO with or without the hybridoma supernatants. […]

[2] = molecular target: T3, soluble hetero-EPOR (EPOR-CD131-Fc) (Homo sapiens, UniProt P19235+P32927); assay: Bio-layer interferometry (Octet) binding of hybridoma antibodies to EPOR-CD131-Fc; details: hybridoma supernatants; 30 nM soluble receptor
T3 construct: Chimeric Fc fusion proteins of the extracellular domains of human EPOR and human CD131; purchased Sino Biological CT010-H02H
T3 sequence (P19235 25-250 limits assumed): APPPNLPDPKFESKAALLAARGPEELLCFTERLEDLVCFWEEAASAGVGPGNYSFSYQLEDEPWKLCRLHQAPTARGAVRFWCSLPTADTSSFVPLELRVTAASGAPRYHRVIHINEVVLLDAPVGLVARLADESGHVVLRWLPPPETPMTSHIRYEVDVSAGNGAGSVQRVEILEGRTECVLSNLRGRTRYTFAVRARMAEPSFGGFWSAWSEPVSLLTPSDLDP
T3 sequence (P32927 17-443 limits assumed): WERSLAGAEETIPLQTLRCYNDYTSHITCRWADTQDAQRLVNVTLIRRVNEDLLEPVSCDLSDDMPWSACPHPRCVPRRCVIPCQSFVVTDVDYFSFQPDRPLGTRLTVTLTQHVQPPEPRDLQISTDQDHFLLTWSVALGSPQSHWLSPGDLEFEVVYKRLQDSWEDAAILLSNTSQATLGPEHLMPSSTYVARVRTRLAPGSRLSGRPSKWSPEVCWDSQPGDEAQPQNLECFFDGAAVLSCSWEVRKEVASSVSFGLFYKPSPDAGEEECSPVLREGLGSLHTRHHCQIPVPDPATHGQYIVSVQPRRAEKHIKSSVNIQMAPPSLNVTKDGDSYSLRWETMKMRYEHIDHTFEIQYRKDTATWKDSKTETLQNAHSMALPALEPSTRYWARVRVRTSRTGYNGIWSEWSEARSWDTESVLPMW
Text: as §1

blocking of the EPO/EPOR interaction [1]: partial blocking | binding to EPOR-Fc (EPOR-Fc): potent binding | binding to EPOR-CD131-Fc [2]: potent binding
B1: EPORab - M1: hybridoma antibody clone, VH/VK in Table 10 (antibody, V domains shown)
VH: QVQLQESGPGLVKPSQTLSLTCTVSGGSISSGGYYWSWIRQHPGKGLEWIGNIYYSGNPYYNPSLKSRLIISVDTSKNQFSLRLNSVTAADTAVYYCATFYYGSGSYYNEDYWGQGTLVTVSS
VL: DIQMTQSPSSLSASVGDRVTITCRASQGIRIDLGWYQQKPGKAPKRLIYAASSLKSGVPSRFSGSGSGTEFTLTISSLQPEDFTTYFCLQHNSYPYTFGQGTKLEIK

Reference: patent US12637513B2, “Method of treating cancer by administering an inhibitor of erythropoietin receptor activity comprising either erythropoietin receptor or erythropoietin protein” (ImmunEdge, Inc., priority 2022, dated 2026)
